Assay results published in the supplement of paper PMC9732359.
± gives the uncertainty stated by the source.

Assay: protein stability index of a GFP-peptide fusion (yeast GPS) (PSI 1-4); higher = more stable; sorted into four equal gates, so the index is relative within each strain
Conditions: pdr5∆
Outline: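 Plasmids isolated from each sorting gate were PCR-amplified and Illumina-sequenced, and barcodes assigned the reads to strains. The gates, four of equal size, were set by GFP/Cherry fluorescence ratio on mid-log cultures in leucine-free medium. These cultures were yeast carrying a pooled library of tiled 17-residue yeast protein peptides fused downstream of GFP on a plasmid that also expresses Cherry. The protein stability index is the sum of every gate's read frequency times its gate number.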
Work on SVDESARIKDAFITQLE [YJL039C/NUP192] yielded a protein stability index of 2.61 ± 0.17. For SVDICNNSKSRYPMNLL [ECM29], the protein stability index was 2.35 ± 0.056. For SVEWMKVSPSMCGVIVK [SIN4], the protein stability index was 1.69 ± 0.051.

Same assay, conditions: san1∆
In the case of SNGGGKVKPIRGFCQRL [RPO31], the protein stability index is reported as 3.09 ± 0.097. With SNGNNLPLNKPRLEKLI [RGR1] the protein stability index was 3.18 ± 0.055. SNIITKSLVQYIELLPN [DIS3] showed a protein stability index of 2.22 ± 0.072. For SNIPRGSVIQTHIAESA [MCD1], the protein stability index was 2.62 ± 0.09. With SNLEKLPKYKEKKAASA [MED7] the protein stability index was 2.83 ± 0.06. SNLSPDLKFKRHKNKHI [DSN1] gave a protein stability index of 2.28 ± 0.077. With SNLTIYPIYELLMSCPR [GRR1] the protein stability index was 1.89 ± 0.13. SNMILGSVELSTGDYTF [YML103C/NUP188] showed a protein stability index of 2.16 ± 0.077. For SNMQKSLLPYYHLTKAV [RPN3], the protein stability index was 1.85 ± 0.062. SNNITSGLNRAISTGNW [RET1] showed a protein stability index of 3.25 ± 0.061. Work on SNQFKRSLATAVATPKA [COR1] yielded a protein stability index of 1.35 ± 0.089. SNQRFKDLQWLEFARIT [SIN4] gave a protein stability index of 2.74 ± 0.068. SNRCIVFSKKEPFPHSK [CSN12] showed a protein stability index of 2.81 ± 0.065. Sequence SNSDNCPEEFAESMCQE [SNF5] has a protein stability index of 3.27 ± 0.041. In the case of SNTYKEERSNNLLTPQP [MCD1], the protein stability index is reported as 3.01 ± 0.046. With SNVFGSNNSTTNTFGSN [YJL041W/NSP1] the protein stability index was 3.22 ± 0.043. For SNYSRTMTISHLLLGFQ [YJL039C/NUP192], the protein stability index was 1.59 ± 0.058. With SPHYNSQKQTLIKKPLT [SSN3] the protein stability index was 2.46 ± 0.058. Sequence SPISDSRDELIRLAKTL [RPN10] has a protein stability index of 2.37 ± 0.16. In the case of SPIVNVLEDVYRCFAQL [RRI2], the protein stability index is reported as 2.9 ± 0.14. With SPMGNAYSMGAQNQGGQ [PGD1] the protein stability index was 2.91 ± 0.064. For SPMLYKVPDISSDGQLK [BRR2], the protein stability index was 2.61 ± 0.054. In the case of SPNPTLQPVIPGGAASK [SNF5], the protein stability index is reported as 3.19 ± 0.058. In the case of SPSYSPTSPSYSPTSPS [RPO21], the protein stability index is reported as 2.06 ± 0.034. Work on SPVSSVHTANFSERGSN [MED2] yielded a protein stability index of 2.53 ± 0.072. SPVYDVDPRIINSENDY [NUT1] showed a protein stability index of 2.39 ± 0.08. With SPYNADFDGDEMNLHVP [RPO21] the protein stability index was 3.15 ± 0.078. Work on SQCRLHELREKERISVA [PRE2] yielded a protein stability index of 2.87 ± 0.097. For SQEREFSLLVKAEIPPE [SIN4], the protein stability index was 2.96 ± 0.073. For SQESINQKLALVIKSGK [RPL30], the protein stability index was 2.31 ± 0.11. SQFNGSGNGSNPNTNTN [PGD1] showed a protein stability index of 2.84 ± 0.076. In the case of SQKAKLMTFNAETKSYD [YLR335W/NUP2], the protein stability index is reported as 2.3 ± 0.057. Work on SQQNIVPNSSDQAELPN [SNF2] yielded a protein stability index of 3.04 ± 0.057. For SQSSNANICLTFLESIN [SIN4], the protein stability index was 2.55 ± 0.05. With SQTMAETYVASYVVPRL [ECM29] the protein stability index was 1.9 ± 0.069. In the case of SQTTQLAGMDVEDALDK [FAS2], the protein stability index is reported as 3.31 ± 0.083. In the case of SQWNDSSIDKIEDRDFL [SIR3], the protein stability index is reported as 3.23 ± 0.28. In the case of SQYSTMVNIGLHNLNEY [RGR1], the protein stability index is reported as 1.16 ± 0.09. SRDLDISSSTQCLRFLK [POP6] showed a protein stability index of 2.7 ± 0.14. For SRGIVIGSGAMSPLECR [RPP1], the protein stability index was 2.12 ± 0.069. With SRSRSSIRSISPAGKYK [ESC2] the protein stability index was 3.17 ± 0.064. For SRSTEKKNDMNTSAKNK [SIR4], the protein stability index was 2.9 ± 0.052. Sequence SSDGALCMDSSYIGTII [POP1] has a protein stability index of 3.04 ± 0.12. Sequence SSEILSYLSNSLDTSAS [YML103C/NUP188] has a protein stability index of 2.25 ± 0.063. Sequence SSENNQIILAYIKYNIL [SRP68] has a protein stability index of 2.92 ± 0.076. SSFSKKTLTEEVTKSSH [YIL149C/MLP2] showed a protein stability index of 2.77 ± 0.071. In the case of SSIQESLLSLVGHLSIL [ECM29], the protein stability index is reported as 1.83 ± 0.053. Sequence SSISVMGENEKPDVTYA [RPT3] has a protein stability index of 3.12 ± 0.11. With SSLALVFALHKYKPTPL [SMC4] the protein stability index was 2.17 ± 0.088. SSLEELLLKDQQTAKKL [ECM29] gave a protein stability index of 2.92 ± 0.1. Work on SSLLSRLISSKMPGGFT [FAS2] yielded a protein stability index of 2.17 ± 0.094. Sequence SSLRNQELLNAETLCFT [RPN3] has a protein stability index of 3.22 ± 0.065. In the case of SSNIVNENDSQAIITER [YIL149C/MLP2], the protein stability index is reported as 2.07 ± 0.26. SSNLYETIIEADKSLPS [YJR042W/NUP85] showed a protein stability index of 2.94 ± 0.039. For SSNPQSAYVKAFYQKGN [SMC1], the protein stability index was 1.96 ± 0.052. In the case of SSNSQQSTPQPDDMVEI [ITC1], the protein stability index is reported as 2.58 ± 0.054. In the case of SSNVQQPQQQLGDMENN [RTT102], the protein stability index is reported as 3.11 ± 0.088. Sequence SSRFIKGGSLYGLGLIY [RPN2] has a protein stability index of 2.38 ± 0.061. SSRLEFVKGISRDIKAL [YML103C/NUP188] gave a protein stability index of 1.99 ± 0.085. Work on SSTDFSTCIVSLIRNNL [ECM29] yielded a protein stability index of 2.41 ± 0.063. Sequence SSTITGDVVLAAAYSHE [RPL5] has a protein stability index of 2.61 ± 0.057. In the case of SSTKPPGSVNSAAKYKD [NUT1], the protein stability index is reported as 2.53 ± 0.1. SSVNEDTFLPPPPPPPS [PRP8] gave a protein stability index of 2.44 ± 0.038. Sequence STAIKSLVALGIDPQDL [CDC53] has a protein stability index of 2.81 ± 0.053. Work on STATRNVTMIDDLIHFT [COR1] yielded a protein stability index of 2.82 ± 0.086. For STGDYTFTIQLLKLTKV [YML103C/NUP188], the protein stability index was 2.16 ± 0.12. STIPTRENGKGGQIAHI [ROX3] gave a protein stability index of 2.98 ± 0.052. Sequence STLQHFQETLDSTVVYP [MED8] has a protein stability index of 2.96 ± 0.055. Work on STSFSFNAPATGNGTTT [YOR098C/NUP1] yielded a protein stability index of 3.03 ± 0.033. For STVKKKDIVNISIPKTC [REC8], the protein stability index was 2.53 ± 0.084. In the case of SVALHRHSNALVDILPP [RPT3], the protein stability index is reported as 2 ± 0.07. With SVANTPSEIPDAHKAEQ [SWI3] the protein stability index was 3.42 ± 0.077. In the case of SVDDVLSALDHIGHSAL [DPB4], the protein stability index is reported as 3.27 ± 0.083. SVDESARIKDAFITQLE [YJL039C/NUP192] gave a protein stability index of 2.9 ± 0.16. In the case of SVDICNNSKSRYPMNLL [ECM29], the protein stability index is reported as 2.71 ± 0.077.
